Reference: US20100298213A1, “Pharmaceutically Active Insulin Receptor-Modulating Molecules” (Novo Nordisk A/S, priority 2004, published 2010)
Square brackets hold non-standard residues; d marks the D form. Ends that are not written are not given here. Dip = N[C@H](C(=O)O)C(c1ccccc1)c1ccccc1; Orn = NCCC[C@H](N)C(=O)O; Aib = CC(C)(N)C(=O)O

How the values were obtained:
[1] = biological target: human IR (HIR) (Homo sapiens, UniProt P06213); assay: Human IR affinity (Kd); assay type: binding; details: Kd value expressed relative to that of human insulin in the same assay
[2] = biological target: insulin receptor on mouse adipocytes (mouse, UniProt P15208 28-1372); assay: cell-based or functional assay
insulin receptor on mouse adipocytes, sequence (P15208 28-1372): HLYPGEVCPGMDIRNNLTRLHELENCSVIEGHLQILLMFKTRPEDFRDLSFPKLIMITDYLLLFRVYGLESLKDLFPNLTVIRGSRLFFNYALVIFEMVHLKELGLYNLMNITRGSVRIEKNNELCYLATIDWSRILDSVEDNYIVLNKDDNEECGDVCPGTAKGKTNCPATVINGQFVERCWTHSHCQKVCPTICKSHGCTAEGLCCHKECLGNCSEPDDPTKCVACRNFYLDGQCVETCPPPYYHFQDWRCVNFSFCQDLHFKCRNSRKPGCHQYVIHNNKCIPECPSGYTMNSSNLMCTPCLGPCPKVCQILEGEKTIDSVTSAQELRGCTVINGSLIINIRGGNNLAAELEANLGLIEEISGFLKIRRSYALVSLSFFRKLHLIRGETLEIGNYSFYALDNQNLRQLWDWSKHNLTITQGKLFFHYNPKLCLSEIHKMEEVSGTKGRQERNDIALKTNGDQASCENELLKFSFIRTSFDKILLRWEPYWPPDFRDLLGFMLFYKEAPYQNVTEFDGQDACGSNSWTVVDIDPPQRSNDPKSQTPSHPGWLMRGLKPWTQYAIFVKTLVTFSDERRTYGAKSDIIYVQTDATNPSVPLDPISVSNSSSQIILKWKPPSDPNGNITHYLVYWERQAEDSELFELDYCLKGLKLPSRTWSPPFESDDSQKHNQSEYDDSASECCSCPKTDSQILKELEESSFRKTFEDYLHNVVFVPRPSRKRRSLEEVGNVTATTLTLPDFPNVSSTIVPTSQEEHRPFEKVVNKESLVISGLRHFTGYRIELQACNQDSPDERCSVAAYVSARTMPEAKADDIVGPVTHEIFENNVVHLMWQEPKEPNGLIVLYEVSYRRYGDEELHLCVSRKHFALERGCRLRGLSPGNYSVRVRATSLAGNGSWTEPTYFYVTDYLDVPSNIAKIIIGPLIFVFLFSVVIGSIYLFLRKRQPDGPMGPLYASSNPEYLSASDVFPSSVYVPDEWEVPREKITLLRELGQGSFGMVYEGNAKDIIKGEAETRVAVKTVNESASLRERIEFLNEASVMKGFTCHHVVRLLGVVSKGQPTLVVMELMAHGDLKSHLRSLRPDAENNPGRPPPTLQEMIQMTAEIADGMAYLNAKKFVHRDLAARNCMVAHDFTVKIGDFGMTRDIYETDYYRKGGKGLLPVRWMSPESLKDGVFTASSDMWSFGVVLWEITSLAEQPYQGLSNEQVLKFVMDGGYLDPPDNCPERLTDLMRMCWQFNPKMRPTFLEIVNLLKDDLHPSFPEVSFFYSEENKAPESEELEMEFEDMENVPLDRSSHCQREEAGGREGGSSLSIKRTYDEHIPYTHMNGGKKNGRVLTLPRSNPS

[3] = biological target: T1, pig insulin receptor isoform without exon 11 (pig, UniProt F1SCK8 28-746; F1SCK8 751-1370); assay: receptor binding, standard methods (FIG. 2)
T1 construct: also called PIR-11; PIR - 11
T1 sequence (alpha, as listed by the source limits assumed, stated change not applied, form in doubt, chain 1 of 2): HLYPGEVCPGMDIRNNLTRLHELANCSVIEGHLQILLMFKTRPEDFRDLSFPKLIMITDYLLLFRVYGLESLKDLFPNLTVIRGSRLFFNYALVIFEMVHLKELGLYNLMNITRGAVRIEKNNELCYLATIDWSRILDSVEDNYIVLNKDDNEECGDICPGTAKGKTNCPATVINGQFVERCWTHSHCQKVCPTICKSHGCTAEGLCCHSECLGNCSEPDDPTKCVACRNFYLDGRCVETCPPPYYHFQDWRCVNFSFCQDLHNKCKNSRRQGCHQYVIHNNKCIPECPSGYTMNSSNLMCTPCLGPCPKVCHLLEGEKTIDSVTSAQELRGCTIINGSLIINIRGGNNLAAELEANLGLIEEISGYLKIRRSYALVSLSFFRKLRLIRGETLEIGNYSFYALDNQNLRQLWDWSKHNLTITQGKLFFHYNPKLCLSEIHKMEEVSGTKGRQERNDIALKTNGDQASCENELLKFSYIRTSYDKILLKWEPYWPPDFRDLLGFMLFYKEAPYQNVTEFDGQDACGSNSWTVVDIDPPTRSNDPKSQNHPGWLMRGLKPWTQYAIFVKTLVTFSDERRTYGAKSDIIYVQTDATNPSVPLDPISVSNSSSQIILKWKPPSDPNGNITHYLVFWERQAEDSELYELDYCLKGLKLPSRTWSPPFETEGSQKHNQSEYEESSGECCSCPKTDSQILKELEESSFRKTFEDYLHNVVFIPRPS
T1 sequence (beta, as listed by the source limits assumed, stated change not applied, form in doubt, chain 2 of 2): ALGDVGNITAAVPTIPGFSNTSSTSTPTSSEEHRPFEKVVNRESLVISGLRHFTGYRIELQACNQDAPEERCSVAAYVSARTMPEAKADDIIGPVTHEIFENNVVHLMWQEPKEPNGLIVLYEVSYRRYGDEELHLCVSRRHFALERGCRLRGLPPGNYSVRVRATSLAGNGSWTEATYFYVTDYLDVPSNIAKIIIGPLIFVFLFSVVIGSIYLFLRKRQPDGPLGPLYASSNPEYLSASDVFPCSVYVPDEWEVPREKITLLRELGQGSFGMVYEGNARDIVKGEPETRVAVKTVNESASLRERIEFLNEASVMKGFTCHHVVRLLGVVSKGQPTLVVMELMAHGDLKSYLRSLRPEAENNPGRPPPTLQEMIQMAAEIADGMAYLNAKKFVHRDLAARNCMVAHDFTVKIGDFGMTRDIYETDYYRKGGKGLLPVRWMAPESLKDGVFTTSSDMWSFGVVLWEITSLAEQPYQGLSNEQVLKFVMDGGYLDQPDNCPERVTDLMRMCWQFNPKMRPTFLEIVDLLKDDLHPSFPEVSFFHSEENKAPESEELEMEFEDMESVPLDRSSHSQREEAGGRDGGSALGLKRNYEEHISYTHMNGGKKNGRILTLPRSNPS
From the text: (§1) A number of IRBPs (S519; S557; S597; S636; S667; S733; S671; S660; S696; S574; S700; S626; and S726), some of which described in the prior patent documents, were applied to A and B isoforms (−11 and +11 isoforms) of the human, rat, and pig insulin receptors (HIR, RIR, and PIR) using standard methods.

[4] = biological target: T2, rat insulin receptor isoform without exon 11 (rat, UniProt P15127-2 27-1371, limits assumed); assay: receptor binding, standard methods (FIG. 2)
T2 construct: also called RIR-11; RIR - 11
From the text: as §1

[5] = biological target: T3, human insulin receptor isoform without exon 11 (human, UniProt P06213-2 28-1370, limits assumed); assay: receptor binding, standard methods (FIG. 2)
T3 construct: also called HIR-11; HIR - 11
From the text: as §1

[6] = biological target: rat insulin receptor isoform with exon 11 (rat) (UniProt P15127); assay: receptor binding, standard methods (FIG. 2)
rat insulin receptor isoform with exon 11 (rat), sequence (P15127 27-1383, stated change not applied): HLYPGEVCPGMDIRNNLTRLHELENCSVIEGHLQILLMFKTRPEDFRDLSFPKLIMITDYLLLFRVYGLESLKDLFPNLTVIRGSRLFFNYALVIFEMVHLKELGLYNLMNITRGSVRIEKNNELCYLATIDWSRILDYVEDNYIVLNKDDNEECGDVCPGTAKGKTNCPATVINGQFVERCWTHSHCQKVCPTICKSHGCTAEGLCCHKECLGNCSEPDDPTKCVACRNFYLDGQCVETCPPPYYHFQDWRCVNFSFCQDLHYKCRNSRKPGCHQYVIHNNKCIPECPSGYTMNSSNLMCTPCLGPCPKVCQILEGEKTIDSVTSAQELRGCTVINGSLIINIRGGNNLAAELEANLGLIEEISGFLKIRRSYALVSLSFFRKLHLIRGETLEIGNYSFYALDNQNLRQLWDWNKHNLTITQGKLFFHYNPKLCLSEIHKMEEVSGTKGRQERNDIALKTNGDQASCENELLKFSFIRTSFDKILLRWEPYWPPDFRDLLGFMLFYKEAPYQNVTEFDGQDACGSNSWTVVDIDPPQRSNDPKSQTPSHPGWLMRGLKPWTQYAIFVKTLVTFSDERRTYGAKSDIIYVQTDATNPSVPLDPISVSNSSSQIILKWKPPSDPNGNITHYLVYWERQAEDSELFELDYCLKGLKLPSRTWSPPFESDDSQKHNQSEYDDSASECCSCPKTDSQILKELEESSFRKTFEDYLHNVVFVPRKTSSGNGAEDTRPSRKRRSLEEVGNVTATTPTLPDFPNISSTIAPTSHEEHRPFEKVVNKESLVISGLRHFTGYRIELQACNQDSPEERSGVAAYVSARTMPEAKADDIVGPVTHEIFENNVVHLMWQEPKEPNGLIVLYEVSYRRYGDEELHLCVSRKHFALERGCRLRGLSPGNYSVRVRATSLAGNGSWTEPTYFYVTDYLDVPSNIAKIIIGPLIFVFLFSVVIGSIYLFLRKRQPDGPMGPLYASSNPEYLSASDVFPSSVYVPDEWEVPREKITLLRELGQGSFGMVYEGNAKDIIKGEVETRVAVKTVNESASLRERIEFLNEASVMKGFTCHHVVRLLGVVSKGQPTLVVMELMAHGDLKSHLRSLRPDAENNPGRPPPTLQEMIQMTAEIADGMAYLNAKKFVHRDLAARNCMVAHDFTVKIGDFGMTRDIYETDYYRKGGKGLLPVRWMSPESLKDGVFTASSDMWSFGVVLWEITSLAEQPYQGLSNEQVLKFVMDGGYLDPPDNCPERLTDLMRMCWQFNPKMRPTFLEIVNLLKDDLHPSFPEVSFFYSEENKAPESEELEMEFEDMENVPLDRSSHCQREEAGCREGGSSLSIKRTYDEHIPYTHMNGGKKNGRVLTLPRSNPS

[7] = biological target: human insulin receptor isoform with exon 11 (human) (UniProt P06213); assay: receptor binding, standard methods (FIG. 2)

EC50 (FFC) [2]	EC50 (FFC) rel. to HI [2]	Molecule	other results
		Ac-SLEEEWAQIQCEVWGRGCPK(ε-carboxyfluorescein)ESFYGWFERQLG [compound 871]	Kd (HIR) rel. to HI [1]: 4%
		Ac-SLEEEW[Aib]QIQCEVWGRGCPSESFYDWFERQL (cysteine pairing not given here) [compound 875]	Kd (HIR) rel. to HI [1]: 12%
		Ac-SLEEEWAQIQCEVWGRGC-pox-FYGWFERQLG [compound 802]	Kd (HIR) rel. to HI [1]: 6%
		Ac-SLE-Aib-EW-Aib-QIQCEVWGRGC-pox-FYGWFE-Aib-QLG [compound 806]	Kd (HIR) rel. to HI [1]: 3%
		Ac-SLEHEW[Aib]QIQCEVWGRPCPSEP[Dip]YGWFHEQLGPP (cysteine pairing not given here) [compound 872]	Kd (HIR) rel. to HI [1]: 6%
		SLEHEWAQIQCEVWGRGCPSEPFYGWFLAQLG [compound 799]	Kd (HIR) rel. to HI [1]: 4%
		SLEHEWAQIQCEVWGRGCPSEPFYGWFERQLG [compound 800]	Kd (HIR) rel. to HI [1]: 07%
		Ac-SLE-Aib-EW-Aib-QIQCEVWGRPCPSEP-Dip-YGWFHEQLGPP [compound 874]	Kd (HIR) rel. to HI [1]: 8%
		Ac-SLEEEWAQIQCEVWG[Orn]GCPSESFYGWFERQLG (cysteine pairing not given here) [compound 805]	Kd (HIR) rel. to HI [1]: 24%
230 nM		Ac-SLEHEWAQIHCEVYGRGCPSESFYHWFERQL (cysteine pairing not given here) [674]	
0.1 nM	65%	Ac-SLEEEWAQIQCEVWGRGCPSESFYDWFERQLG (cysteine pairing not given here) [S671]	relative affinity [3]: 23; relative affinity [4]: 39; relative affinity [5]: 86; relative affinity [6]: 65; relative affinity [7]: 98
7.7 nM	0.8%	SLEEEWAQVECEVYGRCPSESFYDWFERQL [682]	
3.9 nM	1%	HLEEEWSEIQCELWGRGCPSEDFYDWFEAQLHA [617]	
4.3 nM	1.5%	Ac-SLEEEWAQVECEVYGRGCPSESFYDWFERQL (cysteine pairing not given here) [699]	
14 nM	0.4%	SLEEEWAQIEAEVWGRGAPPSESFYDWFERQLGY [649]	
~1000 nM		Ac-SLEEEWAQIQCEVWGRGCPSGGSTFEDYLHNVVFVPRPS (cysteine pairing not given here) [658]	
16 nM	0.4%	SLEEHWAQVECEVYGRGCPSESFYDWFERQL [680]	
15 nM	0.4%	SLEEYWAQVECEVYGRGCPSESFYDWFERQL [689]	
15 nM	0.4%	SLEEEWAQVECEVYQRGCPSESFYDWFERQL [684]	
75 nM	0.1%	SLEEEWAQVECEVYGRVCPSESFYDWFERQL [693]	
16 nM	0.4%	SLEEVWAQVECEVYGRGCPSESFYDWFERQL [690]	
72 nM	0.1%	SLEEHWHQVECEVYGRGCPSESFYDWFERQL [697]	
9.8 nM	0.6%	SLEEEWAQVECEVYHRGCPSESFYDWFERQL [695]	

EC50 (FFC) [2]	EC50 (FFC) rel. to HI [2]	Molecule	other results
7.7 nM	0.8%	SLEEEWAQVECEVYGRHCPSESFYDWFERQL [692]	
13 nM	0.4%	SLEEEWGQVECEVYGRGCPSESFYDWFERQL [681]	
25 nM	0.3%	SLEEEWYQVECEVYGRGCPSESFYDWFERQL [691]	
190 nM	0.03%	SLEEHWHQVECEVYHRHCPSESFYDWFERQL [698]	
26 nM	0.3%	SLEEEWAQVECEVYGRFCPSESFYDWFERQL [694]	
680 nM		SLEEEWAQHECEVYGRGCPSESFYDWFERQL [688]	
2.1 nM	2.9%	SLEEEWAQVECEVYGRNCPSESFYDWFERQL [683]	
0.78 nM	5%	Ac-HGLEEEWAQIQCEVWGRGCPSESFYDWFEAQLHA (cysteine pairing not given here) [639]	
0.083 nM	66%	Ac-SLEEEWAQIQCEVWGRGCPSESFYDWFEAQLHA (cysteine pairing not given here) [634]	
1.5 nM	4%	HQLEEEWQAIQCELWGRGCPSEDFYDWFEAQLHA [616]	
4.6 nM	1%	HELEEEWKRIECELWGRGCPSEDFYDWFEAQLHA [618]	
25 nM	0.3%	Ac-SLEEEWAQIQAEVWGRGAPSESFYDWFERQL [672]	
2 nM	3.3%	Ac-SLEEEWAQIQCEVWGRGCPSEAFYDWFHEQLDD (cysteine pairing not given here) [662]	
> 2000 nM		YEEESFYGWFERQLGEE [732]	
69 nM	1%	Ac-HLEEEWSEIQCELWGRGCPSEDFYDWFEAQLHA (cysteine pairing not given here) [620]	
39 nM	0.1%	Ac-SLEEEWAQIECEVYGRGCPSEGFYNAIELLS (cysteine pairing not given here) [637]	
0.097 nM	57%	Ac-SLEEEWAQIQCELWGRGCPSESFYDWFERQL (cysteine pairing not given here) [643]	
1.9 nM	3.4%	Ac-SLEEEWAQIECEVYGRGCPSESFYHWFERQL (cysteine pairing not given here) [S665]	
0.63 nM	8.7%	Ac-SLEEEWAQIQCEVWGRGCQRPEPFYDWFAEQLDD (cysteine pairing not given here) [655]	
850 nM		GSLDESFYDWFERQLGKKY [670]	
2.3 nM	2.8%	Ac-SLEEEWAQIQCEVWGRGCPSESFYGWFQAQL (cysteine pairing not given here) [668]	
0.14 nM	39%	Ac-SLEEEWAQIQCEVWGRGCQRPEPFYDWFERQL (cysteine pairing not given here) [S642]	
